This note sets out measurements from US20090324606A1 (published 2009).

The labels stand for the following.
B1: 3D12.3-8 (antibody, V domains shown)
VH: QVQLVQSGGGVVHPGRSLKLSCAGSGFTFSDYDMHWVRQAPGKGLEWVAVIWFDGTEKYSAESVKGRFTISRDNSKNTLFLQMNSLRADDTAVYYCAREPDWLLWGDRGALDVWGQGTTVTVSS
VL: DIVMTQSPSTLSASVGDRVTITCRASQSISSWLAWYQQKPGKAPKLLMYGASSLGSGVPSRFSGSGSGTEFTLTISSLHPDDFAAYYCQHYNTYPYTFGQGTKLEIKR
B2: 3D12.3-1 (RAZ1) (antibody, V domains shown)
VH: B1 VH with I51M
VL: B1 VL with R24W, W32R, G50E, S52T, H79Q, N92D
B3: 3D12.3-10 (antibody, V domains shown)
VH: B1 VH with L45F, I51M, W102R
VL: B1 VL with G50E, S56R, H79Q, N92S
B4: AR2 (affinity improved HuC25) (antibody, V domains shown)
VH: QVQLQESGGGLVQPGGSLRLSCAASGFTFSDHYMYWVRQAPGKGLEWVATISDGGSYTYYPDSVKGRFTTSRDNSKNTLYLQMNSLRAEDTAIYYCSRYRYDDAMDYWGQGTLVTVSS
VL: EIVLTQSPATLSLSPGERATISCRASESVDSYGHSFMQWYQQKPGQAPRLLIYRASNLEPGIPARFSGSGSGTDFTLTISSLEPEDFAVYYCQQGNEVPFTFGQGTKVEIKR
B5: AR1 (affinity improved HuC25) (antibody, V domains shown)
VH: B4 VH with H32Y, T70I
VL: B4 VL
B6: WR1(V) (HuC25 derivative) (antibody, V domains shown)
VH: B4 VH with F29S, T70V
VL: B4 VL
B7: WR1(T) (HuC25 derivative) (antibody, V domains shown)
VH: B4 VH with F29S
VL: B4 VL
B8: Humanized C25 (HuC25) (antibody, V domains shown)
VH: B4 VH with H32Y, T70I, I93M
VL: B4 VL with G95S, V98D
B9: 3D12 (wild type, as tested in Table 12) (antibody, V domains shown)
VH: B1 VH with I51M
VL: B1 VL with G50E, G55E, H79Q

Where a chain is given by its changes, count along the chain named.

For one test, the target named is T1, Hall (A1) toxin (UniProt P0DPI0 2-1296).
In the case of B1, the “fold tighter binding than wild type 3D12” value is greater than 10 fold.

As for B2, the “fold tighter binding than wild type 3D12” value is greater than 10 fold.

With B3, the “fold tighter binding than wild type 3D12” value is greater than 10 fold.

For the next test, the target named is T2, Honey (A2) toxin (UniProt Q45894 2-1296).
T2 sequence (Q45894 2-1296): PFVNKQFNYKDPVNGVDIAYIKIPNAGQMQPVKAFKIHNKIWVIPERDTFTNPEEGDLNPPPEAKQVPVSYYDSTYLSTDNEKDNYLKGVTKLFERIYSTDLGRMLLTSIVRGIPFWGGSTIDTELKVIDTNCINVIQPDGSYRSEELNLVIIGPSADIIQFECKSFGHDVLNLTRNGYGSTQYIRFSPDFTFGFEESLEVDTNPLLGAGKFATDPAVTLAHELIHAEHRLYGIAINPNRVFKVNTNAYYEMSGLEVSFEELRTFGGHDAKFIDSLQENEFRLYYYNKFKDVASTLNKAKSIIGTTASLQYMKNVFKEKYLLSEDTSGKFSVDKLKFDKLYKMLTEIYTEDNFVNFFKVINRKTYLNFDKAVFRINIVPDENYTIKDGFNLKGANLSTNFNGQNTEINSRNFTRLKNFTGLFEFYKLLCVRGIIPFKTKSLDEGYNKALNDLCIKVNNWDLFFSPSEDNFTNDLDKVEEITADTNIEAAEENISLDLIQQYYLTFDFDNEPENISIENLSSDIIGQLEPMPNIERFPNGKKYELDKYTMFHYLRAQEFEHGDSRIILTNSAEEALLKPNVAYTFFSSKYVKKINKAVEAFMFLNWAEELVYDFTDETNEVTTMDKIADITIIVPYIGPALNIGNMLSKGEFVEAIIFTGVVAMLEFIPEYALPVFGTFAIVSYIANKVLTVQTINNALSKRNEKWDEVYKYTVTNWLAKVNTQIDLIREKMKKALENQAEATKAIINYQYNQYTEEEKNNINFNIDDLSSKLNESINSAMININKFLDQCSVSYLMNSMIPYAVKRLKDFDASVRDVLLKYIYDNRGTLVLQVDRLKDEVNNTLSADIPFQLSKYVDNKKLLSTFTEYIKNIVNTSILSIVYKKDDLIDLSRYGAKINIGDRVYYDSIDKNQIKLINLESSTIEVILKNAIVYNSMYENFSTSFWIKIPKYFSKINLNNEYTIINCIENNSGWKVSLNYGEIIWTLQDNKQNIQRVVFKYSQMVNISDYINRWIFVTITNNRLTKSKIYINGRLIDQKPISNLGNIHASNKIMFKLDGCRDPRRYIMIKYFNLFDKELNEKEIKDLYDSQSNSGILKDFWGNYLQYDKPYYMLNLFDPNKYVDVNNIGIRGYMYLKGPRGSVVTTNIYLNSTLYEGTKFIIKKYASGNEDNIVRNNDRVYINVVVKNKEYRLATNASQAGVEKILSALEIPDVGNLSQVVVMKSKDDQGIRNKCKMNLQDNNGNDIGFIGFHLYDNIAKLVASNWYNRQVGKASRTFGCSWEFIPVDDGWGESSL
B1: the “fold tighter binding than wild type 3D12” value was greater than 10 fold.

As to B2, the “fold tighter binding than wild type 3D12” value is greater than 10 fold.

As for B3, the “fold tighter binding than wild type 3D12” value was greater than 10 fold.

A further test deals with T1, Hall (A1) toxin. This is another data set of the same source.
Take B4: the affinity, expressed as Kd, was 0.047 nM.

As to B5, binding was characterised by a dissociation constant (Kd) of 0.2 nM.

As to B6, binding was put at a Kd of 0.45 nM.

B7 registered a Kd of 0.31 nM.

B8 showed a Kd of 1.24 nM.

B9 came in with a Kd of 0.94 nM.

Regarding B1, the affinity, expressed as Kd, was 0.021 nM.

B2 yielded a Kd of 0.017 nM.

Turning to B3, the equilibrium dissociation constant (Kd) turned out to be 0.028 nM.

In a further test the target is T2, Honey (A2) toxin. This is another data set of the same source.
Turning to B5, the affinity, expressed as Kd, was 100 nM.

B6 gave a Kd of 9 nM.

B7 gave a Kd of 3.7 nM.

Take B8: the dissociation constant Kd came out at 250 nM.

On to B9, for which binding was characterised by a dissociation constant (Kd) of 2.2 nM.

Molecule B1 had an equilibrium dissociation constant (Kd) of 0.067 nM.

Take B2: the Kd was 0.07 nM.

For the molecule B3, the Kd worked out at 0.081 nM.
